The values that follow come from patent US20240025984A1 (FLUX THERAPEUTICS, published 2024).

First the molecules themselves.
T1: His-SynGAP-EC[1186-1277] (Homo sapiens (Human), UniProt Q96PV0 956-1305)
T1 construct: Expressed in E. coli, purified on nickel resin, 15.75 kDa; also called SYNGAP1 fragment with N-terminal 6His tag
T1 sequence: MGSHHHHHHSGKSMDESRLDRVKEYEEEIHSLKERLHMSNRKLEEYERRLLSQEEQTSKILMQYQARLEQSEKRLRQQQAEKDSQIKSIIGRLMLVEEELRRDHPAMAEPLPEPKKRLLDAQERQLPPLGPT

T2: SYNGAP1-nanoluc-alfa-tag-fusion
T2 chain: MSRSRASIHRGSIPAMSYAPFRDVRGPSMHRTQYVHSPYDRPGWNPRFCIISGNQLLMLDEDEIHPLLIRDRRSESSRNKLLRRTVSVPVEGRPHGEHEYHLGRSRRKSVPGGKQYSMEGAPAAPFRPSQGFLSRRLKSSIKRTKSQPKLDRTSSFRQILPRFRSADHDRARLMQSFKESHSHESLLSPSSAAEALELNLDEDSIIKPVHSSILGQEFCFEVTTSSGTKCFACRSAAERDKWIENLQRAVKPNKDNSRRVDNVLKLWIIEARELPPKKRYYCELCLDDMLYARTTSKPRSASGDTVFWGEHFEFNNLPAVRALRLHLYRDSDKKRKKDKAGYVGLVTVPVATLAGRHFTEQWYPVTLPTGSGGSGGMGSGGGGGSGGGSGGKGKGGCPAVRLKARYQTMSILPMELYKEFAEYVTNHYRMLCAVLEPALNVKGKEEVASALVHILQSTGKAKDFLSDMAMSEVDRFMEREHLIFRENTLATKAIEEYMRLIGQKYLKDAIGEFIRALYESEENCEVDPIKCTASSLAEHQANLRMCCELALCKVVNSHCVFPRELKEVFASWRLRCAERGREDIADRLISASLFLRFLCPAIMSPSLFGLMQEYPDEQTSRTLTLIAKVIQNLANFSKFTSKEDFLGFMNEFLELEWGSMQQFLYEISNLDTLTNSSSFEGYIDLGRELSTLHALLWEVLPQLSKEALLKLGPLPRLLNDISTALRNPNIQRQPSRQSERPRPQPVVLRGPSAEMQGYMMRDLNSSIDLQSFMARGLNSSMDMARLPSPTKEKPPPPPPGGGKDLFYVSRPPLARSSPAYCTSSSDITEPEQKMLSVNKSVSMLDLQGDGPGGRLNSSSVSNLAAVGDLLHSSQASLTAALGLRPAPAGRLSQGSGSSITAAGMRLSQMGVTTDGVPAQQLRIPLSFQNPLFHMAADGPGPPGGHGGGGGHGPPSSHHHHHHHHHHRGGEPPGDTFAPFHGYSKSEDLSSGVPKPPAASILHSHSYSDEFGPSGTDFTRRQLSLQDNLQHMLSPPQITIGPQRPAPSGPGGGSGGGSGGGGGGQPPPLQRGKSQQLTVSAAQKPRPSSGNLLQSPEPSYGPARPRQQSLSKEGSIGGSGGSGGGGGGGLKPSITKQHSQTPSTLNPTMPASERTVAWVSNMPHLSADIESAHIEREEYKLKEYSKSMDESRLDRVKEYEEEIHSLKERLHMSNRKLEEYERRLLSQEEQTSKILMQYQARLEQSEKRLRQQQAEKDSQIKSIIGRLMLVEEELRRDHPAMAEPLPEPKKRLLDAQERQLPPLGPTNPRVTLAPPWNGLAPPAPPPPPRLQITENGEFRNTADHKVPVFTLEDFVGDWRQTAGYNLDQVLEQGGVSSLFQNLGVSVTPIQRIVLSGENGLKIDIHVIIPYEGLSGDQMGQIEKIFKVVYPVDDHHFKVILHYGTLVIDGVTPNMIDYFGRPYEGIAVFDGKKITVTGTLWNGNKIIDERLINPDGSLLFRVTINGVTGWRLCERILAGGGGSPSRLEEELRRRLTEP

B1: FLX00154 (VHH)
VHH: QVQLVESGGGLVQPGGSLRLSCAASGFIFSSYQMAWVRQAPGKGLEWVADINTGGWNTYYADSVKGRFTISRDNAKNTLYLEMNSLKPEDTAVYYCAADRWMVAKIVGGDLDFDSWGQGTQVTVSS
notes: Camelid VHH from a phage library; also called anti-SynGAP VHH FLX00154; VHH
B2: FLX00156 (VHH)
VHH: QVQLVESGGGLVQPGGSLRLACAASGFTFGTHAMHWVRWAPGKGFEWVSTISSGGGGTRYADSVKGRFTISRDNAKNTVYLQMDNLKPEDTAVYYCNSPSNIANDNWGQGTQVTVSS
notes: Camelid VHH from a phage library; also called anti-SynGAP VHH FLX00156; VHH
B3: FLX00153 (VHH)
VHH: QLQLVESGGGLVQPGESLRLSCAASGFTFSNYRMYWVRMAPGKGLEWVSDIDRSGTYTYYADSVKGRFAISRDNAKNTVYLQMNSLKPEDTAVYYCAADRRLIVDLTPEVYDHWGQGTQVTVSS
notes: Camelid VHH from a phage library; also called anti-SynGAP VHH FLX00153; VHH
B4: FLX00155 (VHH)
VHH: QVQLVESGGGLVQPGGSLRLSCAASGFAFGSYDMSWVRQAPGQGPEWVSAITPGGGGTFYAYYSDSVKGRFAISRDNAKNTLTLQMNSLKPDDTAMYYCAKNFYGNGGRGHGTQVTVSS
notes: Camelid VHH from a phage library; also called anti-SynGAP VHH FLX00155; VHH
B5: FLX00152 (VHH)
VHH: QVQLVESGGGLVQPGGSLRLSCAASGFSFSNFPMMWVRQAPGKGREWVADINQDGRNTYYADSVKGRFTISRDNAKTTVYLQMNNLNPEDTAVYYCQAIRTTTHFDSWGQGTQVTVSS
notes: Camelid VHH from a phage library; also called anti-SynGAP VHH FLX00152; VHH
B6: FLX00157 (VHH)
VHH: QVQLVESGGGLVQAGASLRLSCAASERTFGHYAMGWFRQAPGKEREFVATISWKGGTTGYAHSVKGRFTISRDSAKNMVYLQMNSLKPEDTAVYYCAARNTMSGSMSSSAYPYWGQGTQVTVSS
notes: Camelid VHH from a phage library; also called anti-SynGAP VHH FLX00157; VHH
B7: FireflyLuciferase-P2A-anti-syngap1_FLX00155-Cezanne (other)
chain: MEDAKNIKKGPAPFYPLEDGTAGEQLHKAMKRYALVPGTIAFTDAHIEVDITYAEYFEMSVRLAEAMKRYGLNTNHRIVVCSENSLQFFMPVLGALFIGVAVAPANDIYNERELLNSMGISQPTVVFVSKKGLQKILNVQKKLPIIQKIIIMDSKTDYQGFQSMYTFVTSHLPPGFNEYDFVPESFDRDKTIALIMNSSGSTGLPKGVALPHRTACVRFSHARDPIFGNQIIPDTAILSVVPFHHGFGMFTTLGYLICGFRVVLMYRFEEELFLRSLQDYKIQSALLVPTLFSFFAKSTLIDKYDLSNLHEIASGGAPLSKEVGEAVAKRFHLPGIRQGYGLTETTSAILITPEGDDKPGAVGKVVPFFEAKVVDLDTGKTLGVNQRGELCVRGPMIMSGYVNNPEATNALIDKDGWLHSGDIAYWDEDEHFFIVDRLKSLIKYKGYQVAPAELESILLQHPNIFDAGVAGLPDDDAGELPAAVVVLEHGKTMTEKEIVDYVASQVTTAKKLRGGVVFVDEVPKGLTGKLDARKIREILIKAKKGGKIAVTRLKGSGATNFSLLKQAGDVEENPGPRSGTGSSGQVQLVESGGGLVQPGGSLRLSCAASGFAFGSYDMSWVRQAPGQGPEWVSAITPGGGGTFYAYYSDSVKGRFAISRDNAKNTLTLQMNSLKPDDTAMYYCAKNFYGNGGRGHGTQVTVSSGGGGSGGGGSGGGGSGGGGSQVQLVESGGGLVQPGGSLRLSCAASGFAFGSYDMSWVRQAPGQGPEWVSAITPGGGGTFYAYYSDSVKGRFAISRDNAKNTLTLQMNSLKPDDTAMYYCAKNFYGNGGRGHGTQVTVSSGAPGSGPPSFSEGSGGSRTPEKGFSDREPTRPPRPILQRQDDIVQEKRLSRGISHASSSIVSLARSHVSSNGGGGGSNEHPLEMPICAFQLPDLTVYNEDFRSFIERDLIEQSMLVALEQAGRLNWWVSVDPTSQRLLPLATTGDGNCLLHAASLGMWGFHDRDLMLRKALYALMEKGVEKEALKRRWRWQQTQQNKESGLVYTEDEWQKEWNELIKLASSEPRMHLGTNGANCGGVESSEEPVYESLEEFHVFVLAHVLRRPIVVVADTMLRDSGGEAFAPIPFGGIYLPLEVPASQCHRSPLVLAYDQAHFSALVSMEQKENTKEQAVIPLTDSEYKLLPLHFAVDPGKGWEWGKDDSDNVRLASVILSLEVKLHLLHSYMNVKWIPLSSDAQAPLAQ
B8: FireflyLuciferase-P2A-anti-syngap1_FLX00154-Cezanne (other)
chain: MEDAKNIKKGPAPFYPLEDGTAGEQLHKAMKRYALVPGTIAFTDAHIEVDITYAEYFEMSVRLAEAMKRYGLNTNHRIVVCSENSLQFFMPVLGALFIGVAVAPANDIYNERELLNSMGISQPTVVFVSKKGLQKILNVQKKLPIIQKIIIMDSKTDYQGFQSMYTFVTSHLPPGFNEYDFVPESFDRDKTIALIMNSSGSTGLPKGVALPHRTACVRFSHARDPIFGNQIIPDTAILSVVPFHHGFGMFTTLGYLICGFRVVLMYRFEEELFLRSLQDYKIQSALLVPTLFSFFAKSTLIDKYDLSNLHEIASGGAPLSKEVGEAVAKRFHLPGIRQGYGLTETTSAILITPEGDDKPGAVGKVVPFFEAKVVDLDTGKTLGVNQRGELCVRGPMIMSGYVNNPEATNALIDKDGWLHSGDIAYWDEDEHFFIVDRLKSLIKYKGYQVAPAELESILLQHPNIFDAGVAGLPDDDAGELPAAVVVLEHGKTMTEKEIVDYVASQVTTAKKLRGGVVFVDEVPKGLTGKLDARKIREILIKAKKGGKIAVTRLKGSGATNFSLLKQAGDVEENPGPRSGTGSSGQVQLVESGGGLVQPGGSLRLSCAASGFIFSSYQMAWVRQAPGKGLEWVADINTGGWNTYYADSVKGRFTISRDNAKNTLYLEMNSLKPEDTAVYYCAADRWMVAKIVGGDLDFDSWGQGTQVTVSSGGGGSGGGGSGGGGSGGGGSQVQLVESGGGLVQPGGSLRLSCAASGFIFSSYQMAWVRQAPGKGLEWVADINTGGWNTYYADSVKGRFTISRDNAKNTLYLEMNSLKPEDTAVYYCAADRWMVAKIVGGDLDFDSWGQGTQVTVSSGAPGSGPPSFSEGSGGSRTPEKGFSDREPTRPPRPILQRQDDIVQEKRLSRGISHASSSIVSLARSHVSSNGGGGGSNEHPLEMPICAFQLPDLTVYNEDFRSFIERDLIEQSMLVALEQAGRLNWWVSVDPTSQRLLPLATTGDGNCLLHAASLGMWGFHDRDLMLRKALYALMEKGVEKEALKRRWRWQQTQQNKESGLVYTEDEWQKEWNELIKLASSEPRMHLGTNGANCGGVESSEEPVYESLEEFHVFVLAHVLRRPIVVVADTMLRDSGGEAFAPIPFGGIYLPLEVPASQCHRSPLVLAYDQAHFSALVSMEQKENTKEQAVIPLTDSEYKLLPLHFAVDPGKGWEWGKDDSDNVRLASVILSLEVKLHLLHSYMNVKWIPLSSDAQAPLAQ

The first assay concerns the target T1, His-SynGAP-EC[1186-1277]. The experiment in a line: phage display panning, then polyclonal and monoclonal phage ELISA on plate-coated antigen (4 ug/ml). How it is done: The concentration of the eluted phages was determined. First, the eluted phages were added to E. Coli TG1. TG1 was poured onto a plate and cultured upside down. The PFU was calculated based on the number of plaques (i.e. dead TG1) on the plate. The eluted phages were added to TG1 followed infection by helper phage and cultured. Phages were precipitated with PEG/NaCl and subsequently resuspended. The phages were screened using a polyclonal ELISA and a monoclonal ELISA. […] ([…]) or control buffer. The coated plate was washed, blocked, washed, and incubated with the amplified eluted phages. Subsequently the plate was washed and incubated with anti-phage-HRP antibody, washed, and incubated with TMB followed by HCL. The result readings were taken at 450 nm. The monoclonal phase ELISA was carried out according to the following. Single TG1 clones randomly selected from plates (described above) were cultured with helper phage. A total of 192 clones from round 3+96 clones from round 4+96 clones from round 5 were selected. The clones were centrifuged and the supernatant (i.e. the phages) were collected. […] The plate was washed, blocked, washed, incubated with the selected phages, washed, incubated with anti-phage-HRP antibody, washed, and incubated with TMB followed by HCL. The results were read of 450 nm.
In general terms: An ELISA detects its analyte on a solid surface through an enzyme-linked reagent.
B1: the binding result was “binds”.
Turning to B2, the binding result is “binds”.
Regarding B3, the binding result is “binds”.
The same measure, in the same setting: the value for B4 was “binds”.
Still for that read-out and setting: to B5 belongs “binds”; to B6, “binds”.

In another assay the target is T2, SYNGAP1-nanoluc-alfa-tag-fusion. Put plainly: cell-based or functional assay.
For B7, the “increase in SYNGAP1 expression over the control” value is at least 2 fold.
On the same count and under the same terms, the value for B8 was at least 2 fold.
